In patent US20230414709A1 (TRUSTEES OF COLUMBIA UNIVERSITY IN THE CITY OF NEW YORK, published 2023):

B1: NGAL mutant C1 (ligand)
chain: QDSTSDLIPAPPLSKVPLQQNFQDNQFQGKWYVVGLAGNAILREDKDPQTMYATIYELKEDKSYNVTSVLFQKKKCDYWIRTFVPGCQPGEFTLGNIKSYPGLTSYLVRVVSTNYNQHAMVFFKKVSQNQEYFKITLYGRTKELTSELQENFIRFSQSLGLPENHIVFPVPIDQCIDG
B2: NGAL mutant C3 (ligand)
chain: QDSTSDLIPAPPLSSVPLQQNFQDNQFQGKWYVVGLAGNAILREDKDPQTMYATIYELKEDKSYNVTSVLFQKKKCDYWIRTFVPGCQPGEFTLGNIKSYPGLTSYLVRVVSTNYNQHAMVFFKKVSQNREYFKITLYGRTKELTSELQENFIRFSQSLGLPENHIVFPVPIDQCIDG
B3: K3 NGAL mutant protein (ligand)
chain: QDSTSDLIPAPPLSSVPLQQNFQDNQFQGKWYVVGLAGNAILREDEDPQKMYATIYELKEDKSYNVTSVLFRDDGCDYWIRTFVPGCQPGEFTLGNIQSYPGLTSYLVRVVSTNYNQFAMVFFKKVSQNQEYFKITLYGRTKELTSELQENFIRFSKSLGLPENNIVFPVPIDQCIDG
notes: Mutant of human NGAL, made in E. coli as for the wild type (GST fusion vector); Runs as monomer and dimer on Western blot; also called K6 (i.e, K3); Mut1
B4: NGAL mutant B3 (ligand)
chain: QDSTSDLIPAPPLSKVPLQQNFQDNQFQGKWYVVGLAGNAILREDEDPQKMYATIYELKEDKSYNVTSVLFRKKKCDYWIRTFVPGCQPGEFTLGNIKSYPGLTSYLVRVVSTNYNQHAMVFFKKVSQNREYFKITLYGRTKELTSELKENFIRFSKSLGLPENNIVFPVPIDQCIDG
B5: wild-type human NGAL (Neutrophil Gelatinase-Associated Lipocalin) (ligand)
chain: QDSTSDLIPAPPLSKVPLQQNFQDNQFQGKWYVVGLAGNAILREDKDPQKMYATIYELKEDKSYNVTSVLFRKKKCDYWIRTFVPGCQPGEFTLGNIKSYPGLTSYLVRVVSTNYNQHAMVFFKKVSQNREYFKITLYGRTKELTSELKENFIRFSKSLGLPENHIVFPVPIDQCIDG
B6: NGAL mutant B4 (ligand)
chain: QDSTSDLIPAPPLSKVPLQQNFQDNQFQGKWYVVGLAGNAILREDEDPQKMYATIYELKEDKSYNVTSVLFRKKKCDYWIRTFVPGCQPGEFTLGNIQSYPGLTSYLVRVVSTNYNQHAMVFFKKVSQNREYFKITLYGRTKELTSELKENFIRFSKSLGLPENHIVFPVPIDQCIDG
B7: K3Cys protein (ligand)
chain: QDSTSDLIPAPPLSSVPLQQNFQDNQFQGKWYVVGLAGNAILREDEDPQKMYATIYELKEDKSYNVTSVLFRDDGCDYWIRTFVPGSQPGEFTLGNIQSYPGLTSYLVRVVSTNYNQFAMVFFKKVSQNQEYFKITLYGRTKELTSELQENFIRFSKSLGLPENNIVFPVPIDQCIDG
notes: only monomers seen; also called K3Cys NGAL; Mut2
B8: NGAL mutant B2 (ligand)
chain: QDSTSDLIPAPPLSSVPLQQNFQDNQFQGKWYVVGLAGNAILREDEDPQKMYATIYELKEDKSYNVTSVLFRKKKCDYWIRTFVPGCQPGEFTLGNIKSYPGLTSYLVRVVSTNYNQFAMVFFKKVSQNREYFKITLYGRTKELTSELKENFIRFSKSLGLPENNIVFPVPIDQCIDG

What was measured:
[1] = biological target: T1, mouse megalin (mouse, UniProt A2ARV4 26-4660); test: cell-based or functional assay
T1 sequence (A2ARV4 26-4660 limits assumed): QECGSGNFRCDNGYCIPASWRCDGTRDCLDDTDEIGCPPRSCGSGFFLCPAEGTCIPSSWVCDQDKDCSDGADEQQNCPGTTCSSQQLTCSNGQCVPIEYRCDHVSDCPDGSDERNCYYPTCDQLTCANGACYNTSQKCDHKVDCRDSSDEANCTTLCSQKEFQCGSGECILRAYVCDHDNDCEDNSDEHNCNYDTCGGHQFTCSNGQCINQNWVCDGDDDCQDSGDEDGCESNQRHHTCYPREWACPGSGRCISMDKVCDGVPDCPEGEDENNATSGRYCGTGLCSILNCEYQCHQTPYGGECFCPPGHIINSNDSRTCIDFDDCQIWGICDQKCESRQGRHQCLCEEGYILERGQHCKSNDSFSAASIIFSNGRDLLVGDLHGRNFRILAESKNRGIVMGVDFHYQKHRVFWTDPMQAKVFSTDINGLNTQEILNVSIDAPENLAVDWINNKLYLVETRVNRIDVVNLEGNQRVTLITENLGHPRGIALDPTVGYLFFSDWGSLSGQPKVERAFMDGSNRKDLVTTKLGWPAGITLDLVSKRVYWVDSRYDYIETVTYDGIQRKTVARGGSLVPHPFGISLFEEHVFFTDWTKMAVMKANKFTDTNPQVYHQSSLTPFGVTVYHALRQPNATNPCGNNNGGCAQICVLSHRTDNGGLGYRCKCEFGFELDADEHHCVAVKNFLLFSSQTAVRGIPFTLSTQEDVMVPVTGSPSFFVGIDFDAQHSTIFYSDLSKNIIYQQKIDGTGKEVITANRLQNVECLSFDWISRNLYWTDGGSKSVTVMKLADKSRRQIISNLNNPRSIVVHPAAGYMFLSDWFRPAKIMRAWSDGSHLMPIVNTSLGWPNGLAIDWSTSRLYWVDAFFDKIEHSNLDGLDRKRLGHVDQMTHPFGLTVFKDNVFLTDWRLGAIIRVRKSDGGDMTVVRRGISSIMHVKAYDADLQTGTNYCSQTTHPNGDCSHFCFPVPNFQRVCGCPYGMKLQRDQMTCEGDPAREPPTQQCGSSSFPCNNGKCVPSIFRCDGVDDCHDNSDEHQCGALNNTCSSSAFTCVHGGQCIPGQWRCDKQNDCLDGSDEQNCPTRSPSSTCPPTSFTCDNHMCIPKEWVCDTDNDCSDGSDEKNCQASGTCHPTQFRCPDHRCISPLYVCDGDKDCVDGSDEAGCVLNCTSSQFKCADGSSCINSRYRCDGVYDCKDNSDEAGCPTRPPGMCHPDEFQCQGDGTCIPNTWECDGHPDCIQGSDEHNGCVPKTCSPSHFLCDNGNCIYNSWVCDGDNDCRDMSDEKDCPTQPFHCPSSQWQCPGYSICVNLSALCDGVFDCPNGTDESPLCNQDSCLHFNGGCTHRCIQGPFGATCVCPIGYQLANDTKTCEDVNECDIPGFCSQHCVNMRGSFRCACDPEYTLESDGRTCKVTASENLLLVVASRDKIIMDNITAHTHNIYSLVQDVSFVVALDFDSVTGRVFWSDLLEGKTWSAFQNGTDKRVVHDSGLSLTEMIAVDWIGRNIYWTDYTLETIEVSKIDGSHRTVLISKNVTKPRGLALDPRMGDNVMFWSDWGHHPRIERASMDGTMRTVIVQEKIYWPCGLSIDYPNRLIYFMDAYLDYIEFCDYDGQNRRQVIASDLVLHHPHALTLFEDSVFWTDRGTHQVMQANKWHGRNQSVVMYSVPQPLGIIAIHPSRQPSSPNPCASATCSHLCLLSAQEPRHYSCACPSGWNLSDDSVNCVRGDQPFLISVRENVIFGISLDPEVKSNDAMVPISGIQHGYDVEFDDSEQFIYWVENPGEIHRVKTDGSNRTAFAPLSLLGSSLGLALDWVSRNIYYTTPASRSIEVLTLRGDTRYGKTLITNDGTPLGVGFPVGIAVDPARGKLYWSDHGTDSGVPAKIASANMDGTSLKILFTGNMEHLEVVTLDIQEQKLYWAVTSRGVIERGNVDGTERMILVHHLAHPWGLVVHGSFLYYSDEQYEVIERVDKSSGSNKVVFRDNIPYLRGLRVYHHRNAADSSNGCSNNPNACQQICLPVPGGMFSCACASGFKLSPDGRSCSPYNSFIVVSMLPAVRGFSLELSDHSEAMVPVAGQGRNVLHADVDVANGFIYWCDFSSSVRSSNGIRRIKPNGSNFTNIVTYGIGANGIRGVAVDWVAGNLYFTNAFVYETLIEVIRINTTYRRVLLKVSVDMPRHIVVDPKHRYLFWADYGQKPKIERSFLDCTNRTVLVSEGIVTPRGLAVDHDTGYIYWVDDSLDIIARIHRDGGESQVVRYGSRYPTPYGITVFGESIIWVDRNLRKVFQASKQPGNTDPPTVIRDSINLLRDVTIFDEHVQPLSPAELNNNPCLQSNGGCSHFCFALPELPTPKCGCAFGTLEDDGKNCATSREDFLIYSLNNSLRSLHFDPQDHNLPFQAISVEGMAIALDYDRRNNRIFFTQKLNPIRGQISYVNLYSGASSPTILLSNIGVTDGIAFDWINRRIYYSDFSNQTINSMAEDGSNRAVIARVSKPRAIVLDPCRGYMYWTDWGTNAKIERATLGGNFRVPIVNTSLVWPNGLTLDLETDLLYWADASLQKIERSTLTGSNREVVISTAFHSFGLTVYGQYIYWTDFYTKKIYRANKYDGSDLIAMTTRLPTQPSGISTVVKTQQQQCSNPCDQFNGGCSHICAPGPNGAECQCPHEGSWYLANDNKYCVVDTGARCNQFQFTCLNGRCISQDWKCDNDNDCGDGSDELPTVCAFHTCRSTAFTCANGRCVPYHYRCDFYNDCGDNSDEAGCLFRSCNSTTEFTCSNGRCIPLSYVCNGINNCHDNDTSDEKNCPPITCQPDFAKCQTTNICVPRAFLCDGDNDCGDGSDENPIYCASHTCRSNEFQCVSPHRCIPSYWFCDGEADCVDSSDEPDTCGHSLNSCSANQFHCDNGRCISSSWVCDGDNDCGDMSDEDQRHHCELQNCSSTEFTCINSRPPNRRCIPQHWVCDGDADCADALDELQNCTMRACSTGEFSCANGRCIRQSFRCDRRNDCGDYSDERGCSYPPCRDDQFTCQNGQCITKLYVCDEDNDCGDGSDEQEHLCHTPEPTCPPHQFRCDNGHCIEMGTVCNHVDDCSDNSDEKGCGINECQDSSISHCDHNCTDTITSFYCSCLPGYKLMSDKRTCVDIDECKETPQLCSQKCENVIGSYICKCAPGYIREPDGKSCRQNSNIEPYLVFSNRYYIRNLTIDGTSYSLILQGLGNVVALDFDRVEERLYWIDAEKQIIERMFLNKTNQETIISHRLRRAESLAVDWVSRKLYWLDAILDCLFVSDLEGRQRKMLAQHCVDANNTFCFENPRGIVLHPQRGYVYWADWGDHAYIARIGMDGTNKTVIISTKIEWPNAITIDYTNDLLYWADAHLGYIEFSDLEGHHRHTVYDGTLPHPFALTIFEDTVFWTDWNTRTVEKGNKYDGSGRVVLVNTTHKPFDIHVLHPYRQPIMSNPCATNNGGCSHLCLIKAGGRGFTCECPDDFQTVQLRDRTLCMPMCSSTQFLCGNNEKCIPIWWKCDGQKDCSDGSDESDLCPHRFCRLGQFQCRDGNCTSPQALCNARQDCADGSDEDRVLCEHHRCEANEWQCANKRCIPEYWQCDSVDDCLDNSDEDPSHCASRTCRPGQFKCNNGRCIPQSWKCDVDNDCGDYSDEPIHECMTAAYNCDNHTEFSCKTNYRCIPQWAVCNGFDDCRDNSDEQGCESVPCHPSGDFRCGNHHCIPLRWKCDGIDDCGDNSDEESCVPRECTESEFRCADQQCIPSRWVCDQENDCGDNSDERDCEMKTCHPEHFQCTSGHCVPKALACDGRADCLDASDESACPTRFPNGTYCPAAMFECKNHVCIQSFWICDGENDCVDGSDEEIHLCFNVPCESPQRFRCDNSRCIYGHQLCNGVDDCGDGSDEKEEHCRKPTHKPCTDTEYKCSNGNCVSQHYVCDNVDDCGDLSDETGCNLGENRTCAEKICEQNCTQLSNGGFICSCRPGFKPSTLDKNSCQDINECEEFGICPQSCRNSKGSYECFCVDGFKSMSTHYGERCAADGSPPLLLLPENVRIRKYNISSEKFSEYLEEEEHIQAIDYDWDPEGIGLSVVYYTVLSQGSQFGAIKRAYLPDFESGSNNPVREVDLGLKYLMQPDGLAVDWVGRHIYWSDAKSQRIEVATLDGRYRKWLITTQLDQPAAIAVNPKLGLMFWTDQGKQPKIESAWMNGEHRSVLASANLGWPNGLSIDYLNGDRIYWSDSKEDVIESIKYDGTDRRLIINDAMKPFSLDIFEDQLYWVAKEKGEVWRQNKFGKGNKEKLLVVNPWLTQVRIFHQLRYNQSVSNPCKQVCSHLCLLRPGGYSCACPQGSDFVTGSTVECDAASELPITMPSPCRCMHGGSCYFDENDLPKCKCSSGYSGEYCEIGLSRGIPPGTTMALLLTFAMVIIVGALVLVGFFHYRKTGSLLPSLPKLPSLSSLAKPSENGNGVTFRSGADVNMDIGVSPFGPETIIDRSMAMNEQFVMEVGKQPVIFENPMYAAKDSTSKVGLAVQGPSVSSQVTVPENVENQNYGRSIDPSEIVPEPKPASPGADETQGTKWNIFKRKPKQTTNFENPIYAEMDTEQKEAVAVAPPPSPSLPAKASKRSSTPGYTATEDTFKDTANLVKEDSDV

[2] = biological target: T1, mouse megalin; test: cell-based or functional assay; remark: listed apart in the source
[3] = biological target: the molecule itself; test: Western blot of purified NGAL and of NGAL recovered from mouse urine, homodimer band against monomer band
Method: FIGS. 22A-22B. FIG. 22A. Left: Western blot of different species of NGAL. Wild type NGAL forms protein dimers (46-50 KDa) from monomers (at 23-25 KDa). Similarly the Mutant1 (K3 NGAL) forms dimers from monomers. However, Mutant2 (K3Cys) only forms monomers. Right. NGAL proteins (Wt, Mut1 and Mut2) were injected into mice, and the NGAL proteins in the urine (uWt=urinary wild-type protein; uMut1=urinary Mut1 K3 and uMut2=urinary Mut2 K3Cys) were collected at two different time points, and analyzed by Western Blot. For each protein (uWt, uMut1 and uMut2), the 1st lane on the Western blot represents proteins that were collected in the urine 20 min. after the injection and the 2nd lane on the Western blot represents proteins that were collected from the mouse at 180 min. after the injection. Very low levels of uWt appear in urine, whereas higher levels of both uMut1 and uMut2 appear in urine. uMut1 forms both monomers and dimers, whereas uMut2 only forms monomers. FIG. 22B. Mice were injected with NGAL proteins (Wt, Mut1 and Mut2) that were labeled with the dye Alexa Fluor™ 568 (Molecular Probes-Invitrogen), which covalently attaches to the proteins. […]

Binder | Accumulation 3 hours after i.p. injection (%): Urine (Ngal-enterochelin-55Fe3+ complex, C57BL/6 mice) [1] [%] | percent of injected Ngal:Ent:59FeIII complex delivered to mouse urine in 3 hrs [2] [%] | binding result [3]
B1 | 0.72 |  | 
B2 | 0.44 |  | 
B3 | 19.6 | 23 | binds
B4 | 0.3 |  | 
B5 |  | < 0.1 | 
B6 | 0.13 |  | 
B7 |  | ~100 | no binding
B8 | 1.22 |  | 
